According to patent US20240132593A1 (KINETA, published 2024):

How the values were obtained:
Antibody No. 245.1 [1] = test: peptide blocking ELISA on plate-bound VISTA, peptide 2 ug/mL
Method: (§1) ELISA was used to measure the ability of sequential overlapping 15-mer synthetic peptides from human VISTA to block binding of an antibody to full length VISTA-ECD immobilized on a microtiter plate. Nickel coated ELISA plates were blocked with BSA and bound with 0.5 μg/mL VISTA protein (Human recombinant, produced in HEK 293 cells, SinoBiologics) for 1 h at room temperature. Anti-VISTA antibodies were diluted to 2-fold their EC₅₀ concentrations and pre-incubated at a 1:1 ratio with either 2 μg/mL or 20 μg/mL peptide solution in 0.5% BSA in PBST for 30 min at room temperature. Peptide-bound antibody solutions (50 μL) were added to each microtiter well and incubated for 1 h at room temperature, after which the ELISA plate was washed and processed as described above for standard ELISAs. Data are expressed as a percent reduction in ELISA signal obtained without preincubation with peptide solution.

Antibody No. 465.1 [2] = molecular target: T1, Antibody No. 465.1; test: as above
T1 construct: also called Ab No. 465.1
Method: as §1

VSTB174 [3] = test: as above
Method: as §1

Antibody No. 245.1 [4] = test: peptide blocking ELISA on plate-bound VISTA, peptide 20 ug/mL
Method: as §1

Antibody No. 465.1 [5] = molecular target: T1, Antibody No. 465.1; test: as above
Method: as §1

VSTB174 [6] = test: as above
Method: as §1

VSTB174, sequence (VH, as listed by the source, chain 1 of 2): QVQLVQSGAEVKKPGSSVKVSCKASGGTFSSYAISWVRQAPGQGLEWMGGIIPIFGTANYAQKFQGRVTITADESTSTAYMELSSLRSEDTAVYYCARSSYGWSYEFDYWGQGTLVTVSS
VSTB174, sequence (VL, as listed by the source, chain 2 of 2): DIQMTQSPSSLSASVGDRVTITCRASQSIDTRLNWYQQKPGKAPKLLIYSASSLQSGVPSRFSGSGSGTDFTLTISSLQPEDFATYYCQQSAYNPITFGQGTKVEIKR

B1: Spiked Peptide 12 (PIRNLTFQDLHLHHG) (peptide)
peptide: PIRNLTFQDLHLHHG
notes: synthetic overlapping peptide from human VISTA
- percent reduction in ELISA signal (Antibody No. 245.1 [1]): 20%
- percent reduction in ELISA signal (Antibody No. 465.1 [2]): 9%
- percent reduction in ELISA signal (VSTB174 [3]): 52%
- percent reduction in ELISA signal (Antibody No. 245.1 [4]): 62%
- percent reduction in ELISA signal (Antibody No. 465.1 [5]): 55%
- percent reduction in ELISA signal (VSTB174 [6]): 89%

B2: Spiked Peptide 20 (NFSITMRNLTLLDSG) (peptide)
peptide: NFSITMRNLTLLDSG
notes: as for B1
- percent reduction in ELISA signal (Antibody No. 245.1 [1]): 23%
- percent reduction in ELISA signal (Antibody No. 465.1 [2]): 0%
- percent reduction in ELISA signal (VSTB174 [3]): 20%
- percent reduction in ELISA signal (Antibody No. 245.1 [4]): 28%
- percent reduction in ELISA signal (Antibody No. 465.1 [5]): 24%
- percent reduction in ELISA signal (VSTB174 [6]): 42%

B3: Spiked Peptide 2 (PYSLYVCPEGQNVTL) (peptide)
peptide: PYSLYVCPEGQNVTL
notes: as for B1
- percent reduction in ELISA signal (Antibody No. 245.1 [1]): 1%
- percent reduction in ELISA signal (Antibody No. 465.1 [2]): 0%
- percent reduction in ELISA signal (VSTB174 [3]): 8%
- percent reduction in ELISA signal (Antibody No. 245.1 [4]): 9%
- percent reduction in ELISA signal (Antibody No. 465.1 [5]): 1%
- percent reduction in ELISA signal (VSTB174 [6]): 3%

B4: Spiked Peptide 1 (FKVATPYSLYVCPEG) (peptide)
peptide: FKVATPYSLYVCPEG
notes: as for B1
- percent reduction in ELISA signal (Antibody No. 245.1 [1]): 2%
- percent reduction in ELISA signal (Antibody No. 465.1 [2]): 5%
- percent reduction in ELISA signal (VSTB174 [3]): 1%
- percent reduction in ELISA signal (Antibody No. 245.1 [4]): 0%
- percent reduction in ELISA signal (Antibody No. 465.1 [5]): 7%
- percent reduction in ELISA signal (VSTB174 [6]): 18%

B5: Spiked Peptide 21 (MRNLTLLDSGLYCCL) (peptide)
peptide: MRNLTLLDSGLYCCL
notes: as for B1
- percent reduction in ELISA signal (Antibody No. 245.1 [1]): 10%
- percent reduction in ELISA signal (Antibody No. 465.1 [2]): 0%
- percent reduction in ELISA signal (VSTB174 [3]): 15%
- percent reduction in ELISA signal (Antibody No. 245.1 [4]): 4%
- percent reduction in ELISA signal (Antibody No. 465.1 [5]): 22%
- percent reduction in ELISA signal (VSTB174 [6]): 38%

B6: Spiked Peptide 17 (LAQRHGLESASDHHG) (peptide)
peptide: LAQRHGLESASDHHG
notes: as for B1
- percent reduction in ELISA signal (Antibody No. 245.1 [1]): 13%
- percent reduction in ELISA signal (Antibody No. 465.1 [2]): 8%
- percent reduction in ELISA signal (VSTB174 [3]): 21%
- percent reduction in ELISA signal (Antibody No. 245.1 [4]): 26%
- percent reduction in ELISA signal (Antibody No. 465.1 [5]): 7%
- percent reduction in ELISA signal (VSTB174 [6]): 46%

B7: Spiked Peptide 15 (GHQAANTSHDLAQRH) (peptide)
peptide: GHQAANTSHDLAQRH
notes: as for B1
- percent reduction in ELISA signal (Antibody No. 245.1 [1]): 11%
- percent reduction in ELISA signal (Antibody No. 465.1 [2]): 0%
- percent reduction in ELISA signal (VSTB174 [3]): 9%
- percent reduction in ELISA signal (Antibody No. 245.1 [4]): 0%
- percent reduction in ELISA signal (Antibody No. 465.1 [5]): 3%
- percent reduction in ELISA signal (VSTB174 [6]): 35%

B8: Spiked Peptide 13 (TFQDLHLHHGGHQAA) (peptide)
peptide: TFQDLHLHHGGHQAA
notes: as for B1
- percent reduction in ELISA signal (Antibody No. 245.1 [1]): 3%
- percent reduction in ELISA signal (Antibody No. 465.1 [2]): 15%
- percent reduction in ELISA signal (VSTB174 [3]): 26%
- percent reduction in ELISA signal (Antibody No. 245.1 [4]): 57%
- percent reduction in ELISA signal (Antibody No. 465.1 [5]): 36%
- percent reduction in ELISA signal (VSTB174 [6]): 81%

B9: Spiked Peptide 16 (NTSHDLAQRHGLESA) (peptide)
peptide: NTSHDLAQRHGLESA
notes: as for B1
- percent reduction in ELISA signal (Antibody No. 245.1 [1]): 0%
- percent reduction in ELISA signal (Antibody No. 465.1 [2]): 0%
- percent reduction in ELISA signal (VSTB174 [3]): 10%
- percent reduction in ELISA signal (Antibody No. 245.1 [4]): 14%
- percent reduction in ELISA signal (Antibody No. 465.1 [5]): 0%
- percent reduction in ELISA signal (VSTB174 [6]): 28%

B10: Spiked Peptide 5 (TCRLLGPVDKGHDVT) (peptide)
peptide: TCRLLGPVDKGHDVT
notes: as for B1
- percent reduction in ELISA signal (Antibody No. 245.1 [1]): 7%
- percent reduction in ELISA signal (Antibody No. 465.1 [2]): 0%
- percent reduction in ELISA signal (VSTB174 [3]): 14%
- percent reduction in ELISA signal (Antibody No. 245.1 [4]): 9%
- percent reduction in ELISA signal (Antibody No. 465.1 [5]): 12%
- percent reduction in ELISA signal (VSTB174 [6]): 14%

B11: Spiked Peptide 11 (CSERRPIRNLTFQDL) (peptide)
peptide: CSERRPIRNLTFQDL
notes: as for B1
- percent reduction in ELISA signal (Antibody No. 245.1 [1]): 4%
- percent reduction in ELISA signal (Antibody No. 465.1 [2]): 0%
- percent reduction in ELISA signal (VSTB174 [3]): 10%
- percent reduction in ELISA signal (Antibody No. 245.1 [4]): 6%
- percent reduction in ELISA signal (Antibody No. 465.1 [5]): 8%
- percent reduction in ELISA signal (VSTB174 [6]): 14%

B12: Spiked Peptide 18 (GLESASDHHGNFSIT) (peptide)
peptide: GLESASDHHGNFSIT
notes: as for B1
- percent reduction in ELISA signal (Antibody No. 245.1 [1]): 3%
- percent reduction in ELISA signal (Antibody No. 465.1 [2]): 0%
- percent reduction in ELISA signal (VSTB174 [3]): 17%
- percent reduction in ELISA signal (Antibody No. 245.1 [4]): 3%
- percent reduction in ELISA signal (Antibody No. 465.1 [5]): 4%
- percent reduction in ELISA signal (VSTB174 [6]): 32%

B13: Spiked Peptide 9 (YRSSRGEVQTCSERR) (peptide)
peptide: YRSSRGEVQTCSERR
notes: as for B1
- percent reduction in ELISA signal (Antibody No. 245.1 [1]): 4%
- percent reduction in ELISA signal (Antibody No. 465.1 [2]): 3%
- percent reduction in ELISA signal (VSTB174 [3]): 0%
- percent reduction in ELISA signal (Antibody No. 245.1 [4]): 0%
- percent reduction in ELISA signal (Antibody No. 465.1 [5]): 10%
- percent reduction in ELISA signal (VSTB174 [6]): 0%

B14: Spiked Peptide 8 (FYKTWYRSSRGEVQT) (peptide)
peptide: FYKTWYRSSRGEVQT
notes: as for B1
- percent reduction in ELISA signal (Antibody No. 245.1 [1]): 8%
- percent reduction in ELISA signal (Antibody No. 465.1 [2]): 0%
- percent reduction in ELISA signal (VSTB174 [3]): 22%
- percent reduction in ELISA signal (Antibody No. 245.1 [4]): 1%
- percent reduction in ELISA signal (Antibody No. 465.1 [5]): 0%
- percent reduction in ELISA signal (VSTB174 [6]): 34%

B15: Spiked Peptide 7 (GHDVTFYKTWYRSSR) (peptide)
peptide: GHDVTFYKTWYRSSR
notes: as for B1
- percent reduction in ELISA signal (Antibody No. 245.1 [1]): 12%
- percent reduction in ELISA signal (Antibody No. 465.1 [2]): 0%
- percent reduction in ELISA signal (VSTB174 [3]): 8%
- percent reduction in ELISA signal (Antibody No. 245.1 [4]): 26%
- percent reduction in ELISA signal (Antibody No. 465.1 [5]): 26%
- percent reduction in ELISA signal (VSTB174 [6]): 30%

B16: Spiked Peptide 14 (HLHHGGHQAANTSHD) (peptide)
peptide: HLHHGGHQAANTSHD
notes: as for B1
- percent reduction in ELISA signal (Antibody No. 245.1 [1]): 1%
- percent reduction in ELISA signal (Antibody No. 465.1 [2]): 11%
- percent reduction in ELISA signal (VSTB174 [3]): 20%
- percent reduction in ELISA signal (Antibody No. 245.1 [4]): 66%
- percent reduction in ELISA signal (Antibody No. 465.1 [5]): 43%
- percent reduction in ELISA signal (VSTB174 [6]): 79%

B17: Spiked Peptide 6 (GPVDKGHDVTFYKTW) (peptide)
peptide: GPVDKGHDVTFYKTW
notes: as for B1
- percent reduction in ELISA signal (Antibody No. 245.1 [1]): 3%
- percent reduction in ELISA signal (Antibody No. 465.1 [2]): 0%
- percent reduction in ELISA signal (VSTB174 [3]): 10%
- percent reduction in ELISA signal (Antibody No. 245.1 [4]): 9%
- percent reduction in ELISA signal (Antibody No. 465.1 [5]): 4%
- percent reduction in ELISA signal (VSTB174 [6]): 25%

B18: Spiked Peptide 10 (GEVQTCSERRPIRNL) (peptide)
peptide: GEVQTCSERRPIRNL
notes: as for B1
- percent reduction in ELISA signal (Antibody No. 245.1 [1]): 0%
- percent reduction in ELISA signal (Antibody No. 465.1 [2]): 0%
- percent reduction in ELISA signal (VSTB174 [3]): 2%
- percent reduction in ELISA signal (Antibody No. 245.1 [4]): 0%
- percent reduction in ELISA signal (Antibody No. 465.1 [5]): 4%
- percent reduction in ELISA signal (VSTB174 [6]): 0%

B19: Spiked Peptide 19 (SDHHGNFSITMRNLT) (peptide)
peptide: SDHHGNFSITMRNLT
notes: as for B1
- percent reduction in ELISA signal (Antibody No. 245.1 [1]): 0%
- percent reduction in ELISA signal (Antibody No. 465.1 [2]): 3%
- percent reduction in ELISA signal (VSTB174 [3]): 10%
- percent reduction in ELISA signal (Antibody No. 245.1 [4]): 9%
- percent reduction in ELISA signal (Antibody No. 465.1 [5]): 4%
- percent reduction in ELISA signal (VSTB174 [6]): 28%

B20: Spiked Peptide 4 (QNVTLTCRLLGPVDK) (peptide)
peptide: QNVTLTCRLLGPVDK
notes: as for B1
- percent reduction in ELISA signal (Antibody No. 245.1 [1]): 9%
- percent reduction in ELISA signal (Antibody No. 465.1 [2]): 0%
- percent reduction in ELISA signal (VSTB174 [3]): 5%
- percent reduction in ELISA signal (Antibody No. 245.1 [4]): 25%
- percent reduction in ELISA signal (Antibody No. 465.1 [5]): 16%
- percent reduction in ELISA signal (VSTB174 [6]): 32%

B21: Spiked Peptide 3 (VCPEGQNVTLTCRLL) (peptide)
peptide: VCPEGQNVTLTCRLL
notes: as for B1
- percent reduction in ELISA signal (Antibody No. 245.1 [1]): 0%
- percent reduction in ELISA signal (Antibody No. 465.1 [2]): 2%
- percent reduction in ELISA signal (VSTB174 [3]): 0%
- percent reduction in ELISA signal (Antibody No. 245.1 [4]): 3%
- percent reduction in ELISA signal (Antibody No. 465.1 [5]): 7%
- percent reduction in ELISA signal (VSTB174 [6]): 37%

B22: Spiked Peptide 22 (LLDSGLYCCLVVEIR) (peptide)
peptide: LLDSGLYCCLVVEIR
notes: as for B1
- percent reduction in ELISA signal (Antibody No. 245.1 [1]): 0%
- percent reduction in ELISA signal (Antibody No. 465.1 [2]): 0%
- percent reduction in ELISA signal (VSTB174 [3]): 18%
- percent reduction in ELISA signal (Antibody No. 245.1 [4]): 34%
- percent reduction in ELISA signal (Antibody No. 465.1 [5]): 41%
- percent reduction in ELISA signal (VSTB174 [6]): 75%
